From the nanobody polyreactivity screen of Harvey et al. (2022) come the findings set out here.

This data set is described as follows: yeast display, Sf9 membrane polyspecificity reagent, FACS + sequencing; frameworks hold sequencing errors. The procedure, abridged: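 Sorting gates, low and high (top ~1%), were placed on anti-HA fluorescence to track expression and on streptavidin fluorescence to track reagent binding. A clone's polyreactivity label is taken from the gate it came out of. The reagent was 10% biotinylated, detergent-solubilized Sf9 membrane, applied for 1 hour at 4 °C to galactose-induced yeast display cells.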
Consider “QVQLVESGGGLVQAGGSLRLSCAASGSTFFGNAMGWYRQAPGKERELVAAITSGGSTNYADSVKGRFTISRDNAKNTVYLQMNSLKPEDTAVYYCAKEYHYYYWGQGTQVTVSS”, for which the “polyreactivity (PSR sort gate)” value is recorded as “low polyreactivity”.

Take “QVQLVESGGGLVQAGGSLRLSCAASGSTFFGYDMGWSRQAPGKERELVATINSGGSTYYADSVKGRFTISRDNAKNTVYLQMNSLKPADTAVYYCAARPSYLYPYDRTGEYDYWGQGTQVTVSS”: the “polyreactivity (PSR sort gate)” value is recorded as “high polyreactivity”.

Turning to “QVQLVESGGGLVQAGGSLRLSCAASGSTFFGYTMGWYRQAPGKERELVAAITASDGSTYYADSVKGRFTISRDNAKNTVYLQMNSLKPEDTAVYYCNADYRLVRSFRLSSYTYIYDYWGQGTQVTVSS”, the “polyreactivity (PSR sort gate)” value was “low polyreactivity”.

As to “QVQLVESGGGLVQAGGSLRLSCAASGSTFFHNAMGWYRQAPGKEREWVAAINWNGGSTYYADSVKGRFTISRDNAKNTVYLQMNSLKPEDTAVYYCAADIYTYLGAYYIGYYWGQGTQVTVSS”, the “polyreactivity (PSR sort gate)” value is “low polyreactivity”.

Regarding “QVQLVESGGGLVQAGGSLRLSCAASGSTFFHYPMGWYIQATGKERELVAAISWSGGRTSYADSVKGRFTISRDNAKNTVYLQKNSLKPEDTAVYYCAARGRYKDVYRMDYWGQGTQVTVSS”, the “polyreactivity (PSR sort gate)” value was “high polyreactivity”.

As to “QVQLVESGGGLVQAGGSLRLSCAASGSTFFIYAMGWYRPAPGKERELVAAISWRDGSTYYADSVKGRFTISRDNAKNTVYLQMNSLKPEDTAVYYCAADYLLPWGIELDYWGQGTQVTVSS”, the “polyreactivity (PSR sort gate)” value is on record as “high polyreactivity”.

Take “QVQLVESGGGLVQAGGSLRLSCAASGSTFFKYGMGWYRQAPGKERELVATISSRGGNTSYADSVKGRFTISRDNAKNTVYLLMNSLKPEVTAVYLCNAKLVYVGDTTTWGQGTQVTVSS”: the “polyreactivity (PSR sort gate)” value is given as “low polyreactivity”.

On to “QVQLVESGGGLVQAGGSLRLSCAASGSTFFLYAMGWYIQAPGKERELVAAISGSGGTTYYADSVKGRFTISRDNAKNTVYLQMNSLKPEDTAVYYCNKDYYPGSYDYWGQGTQVTVSS”, for which the “polyreactivity (PSR sort gate)” value is on record as “low polyreactivity”.

As for “QVQLVESGGGLVQAGGSLRLSCAASGSTFFPNAMGWYRQAPGKERELVAAIRWRGGTYYADSVKVRFTISRDNAKNTVYLQMNSLKPEDTAVYYCATSVKPSYDYWGQGTQVTVSS”, the “polyreactivity (PSR sort gate)” value is on record as “low polyreactivity”.

On to “QVQLVESGGGLVQAGGSLRLSCAASGSTFFPNGMGWYRQARGKEWELVAAITQDGGSTYYADSVKGRFTISRDNAKNTVYLQMNSLNPEDTAVYYCAASAGPYYEYGYWGQGTQVTVSS”, for which the “polyreactivity (PSR sort gate)” value was “low polyreactivity”.

For “QVQLVESGGGLVQAGGSLRLSCAASGSTFFPYAMGWYRQAPGKERELVAGISSDGGTSYADSVKGRFTISRDNAKNTVYLQMNSLKPEDTAVYYCAALQADRDRYPAFDLMDYWGQGTQVTVSS”, the “polyreactivity (PSR sort gate)” value is “low polyreactivity”.

With “QVQLVESGGGLVQAGGSLRLSCAASGSTFFRNAMGWYRQAPGKDRELVAAISSSGGRTYYADSVKGRFTISRDNAKNTVYLQMNSLKPVETAVYYCAVVSSHYKGPGRNGYDYWAQGTQVTVSS”, the “polyreactivity (PSR sort gate)” value is given as “high polyreactivity”.

Turning to “QVQLVESGGGLVQAGGSLRLSCAASGSTFFRNAMGWYRQAPGKERELVAAISKSGTSTYYADSVKGRFTISRDNAKNTVYLQMNSLKPEDTAVYYCAKYGFSYPQSYAYYYWGQGTQVTVSS”, the “polyreactivity (PSR sort gate)” value was “high polyreactivity”.

Turning to “QVQLVESGGGLVQAGGSLRLSCAASGSTFFRYAMGWYRHAPVKERELVAAISASGGRTYYADSVKGRFTISRDNAKNTVYLLMNSLKPEDTAVYYCNRQYGPYQYYYWGQGTQVTVSS”, the “polyreactivity (PSR sort gate)” value is given as “high polyreactivity”.

Consider “QVQLVESGGGLVQAGGSLRLSCAASGSTFFRYAMGWYRQAPGKERELVAAITTSGGNTYYADSVKGRFTISRDNAKNTVYLQMNSLKPEDTAVYYCNVLRGFPRYYYWGQGTQVTVSS”, for which the “polyreactivity (PSR sort gate)” value is reported as “high polyreactivity”.

In the case of “QVQLVESGGGLVQAGGSLRLSCAASGSTFFRYARGWYIQAPGKEREFVAAISKRGGSTHYADSVKGRFTISRDNAKKTVYLQMNSLKPADTAVYYCAASSFTSSYNYWGQGTQVTVSS”, the “polyreactivity (PSR sort gate)” value was “high polyreactivity”.

As for “QVQLVESGGGLVQAGGSLRLSCAASGSTFFSYAMGWYRQAPGKERDLVAAITSNGGTTHYADSVKGRFTISRDNAKNTVYLQMNSLKPEDTADYYCAKAQGHVRGSRGLQGGRYDYWGQGTQVTVSS”, the “polyreactivity (PSR sort gate)” value was “low polyreactivity”.

For the sequence “QVQLVESGGGLVQAGGSLRLSCAASGSTFFSYAMGWYRQAPGKERELVAAISWIDDGTYYADSVKGRFTISRDNAKNTVYLQMNSLKPEDTAVYYCAADIGAYRTWDYEYWGQGTQVTVSS”, the “polyreactivity (PSR sort gate)” value was “low polyreactivity”.

In the case of “QVQLVESGGGLVQAGGSLRLSCAASGSTFFSYAMGWYRQAPGKERELVAVITGSDGRTFYADSVKGRFTISRDNAKNTVYLQMNSLKPEDTAVYYCAADAVFRATRYDRSTSEDDYWGQGTQVTVSS”, the “polyreactivity (PSR sort gate)” value is given as “low polyreactivity”.

With “QVQLVESGGGLVQAGGSLRLSCAASGSTFFTNTMGWYRQAPGKERELVAAISKSGGSTYYADSVKGRFTISRDNAKNTVYLQMNSLKPEDTAVYYCAASDRYGGRDYWGQGTQVTVSS”, the “polyreactivity (PSR sort gate)” value was “high polyreactivity”.

With “QVQLVESGGGLVQAGGSLRLSCAASGSTFFVYAMGWYRQSPGKERELVADITNSGGNTYYADSVKGRFTISRDNAKNTVFLQMISLKPEDTAVYYCSGEYWFTSYDSWGQGTQVTVSS”, the “polyreactivity (PSR sort gate)” value is on record as “high polyreactivity”.

For “QVQLVESGGGLVQAGGSLRLSCAASGSTFFWYAMGWYRQAPGKEREFVAAITYRGGSTHYADSVKGRFTISRDNAKNTVYLQMNSLKPEDTAVYYCAARSLRYPYDYWGQGTQVTVSS”, the “polyreactivity (PSR sort gate)” value is given as “low polyreactivity”.

For “QVQLVESGGGLVQAGGSLRLSCAASGSTFFYNAMGWYRQAPGKERELVAAISKRGDRTYYADSVKGRFTISRDNAKNTVYLQMNSLKPEDTAVYYCAADSYSFSYYIEYDYWGQGTQVTVSS”, the “polyreactivity (PSR sort gate)” value is listed as “high polyreactivity”.

Consider “QVQLVESGGGLVQAGGSLRLSCAASGSTFFYYAMGWSRQEPGKERELVASISSRGGSTYYADSVKGRFTISRDNAKNTVYLQMYSLKPEDTAVYYCAADLWAYGPLWRWSRADYDYWGQGTQVTVSS”, for which the “polyreactivity (PSR sort gate)” value is recorded as “low polyreactivity”.

Turning to “QVQLVESGGGLVQAGGSLRLSCAASGSTFFYYAMGWYRQAPGKERELVARISGGGSTNYADSVKGRFTISRDNAKNTVYLQMNSLKPEDTAVYYCAADRYHYYRYSYGRYGYWGQGTQVTVSS”, the “polyreactivity (PSR sort gate)” value is “high polyreactivity”.

For “QVQLVESGGGLVQAGGSLRLSCAASGSTFGAYAMGWYRQAPGKEMELVAAISRRGGSTYYADSVKGRFTISRDNAKNTVYLQMNSLKPEDTAVYYCNAVGTRVDGEHYYWGQGTKVTVSS”, the “polyreactivity (PSR sort gate)” value is reported as “high polyreactivity”.

Consider “QVQLVESGGGLVQAGGSLRLSCAASGSTFGAYAMGWYRQAPGKERELVAAISSSDGSTYYADSVKGRFTISRDTAKNTVYLQMNSLKPEDTAVYYCAAEYYSAVYIDEYWYDYWGQGTQVTVSS”, for which the “polyreactivity (PSR sort gate)” value is “high polyreactivity”.

With “QVQLVESGGGLVQAGGSLRLSCAASGSTFGDNAMGWYRQAPGKEREFVAAITTSGTSTYYADSVKGRFTISRDNAKNTVYVQMNSLKPEDTAVYYCAAYSRAAAGFYSSRRDYYWGQGTQVTVSS”, the “polyreactivity (PSR sort gate)” value was “low polyreactivity”.

With “QVQLVESGGGLVQAGGSLRLSCAASGSTFGDYAMGWFRQAPGKERELVAAMNSGDSRNYADSVKGRFTISRDNAKNTVYLQMNSLKPEDTAVYYCAAEPWSISYVYYKYKYESWGQGTQVTVSS”, the “polyreactivity (PSR sort gate)” value is “low polyreactivity”.

In the case of “QVQLVESGGGLVQAGGSLRLSCAASGSTFGDYVMGWYRQAPGKERELVATITDSGGSTYYADSVKGRFTISRDNAKNTVYLQMNSLKPEDTAVYYCNKDFSVEVYDTAYNYYSYRYGYWGQGTQVTVSS”, the “polyreactivity (PSR sort gate)” value is reported as “low polyreactivity”.

In the case of “QVQLVESGGGLVQAGGSLRLSCAASGSTFGENAMGWYRQAPGKERELVAAISDSGGDTYYADSVKGRFTISRDNAKNTVYLQMNSLKPEDTAVYYCAADRYGYWYAYYSWGQGTQVTVSS”, the “polyreactivity (PSR sort gate)” value is reported as “low polyreactivity”.

For “QVQLVESGGGLVQAGGSLRLSCAASGSTFGFNAMGWYRPAPGKEREFVAAINTSGGNTYYADSVKGRFTISRDNAKNTVYLQMNSLKPEDTAVYYCNAREGHLYGYPYGYWGQGTQVTVSS”, the “polyreactivity (PSR sort gate)” value was “low polyreactivity”.

On to “QVQLVESGGGLVQAGGSLRLSCAASGSTFGFNAMGWYRQAPGKERELVAAITFSGGTTYYADSVKGRFTISRDNAKNTVYLQMNSLKPEDTAVYYCNADVKRDRVWGGDYWGQGTQVTVSS”, for which the “polyreactivity (PSR sort gate)” value is “low polyreactivity”.

For “QVQLVESGGGLVQAGGSLRLSCAASGSTFGFYDMGWYRQAPGKERELVAAITSGDITYADSVKGRFTISRDNAKNTVYLQMNSLKPEDTAVYYCATTSYGYWFGYIPEVDYWGQGTQVTVSS”, the “polyreactivity (PSR sort gate)” value was “low polyreactivity”.

Turning to “QVQLVESGGGLVQAGGSLRLSCAASGSTFGFYTMGWYRQAPGKERELVAAISWSTGRTYYADSVKGRFTISRDNAKNTVYLQMNSLKPEDTAVYYCAARALDKYRFGGRYDYWGQGTQVTVSS”, the “polyreactivity (PSR sort gate)” value is listed as “low polyreactivity”.

For the sequence “QVQLVESGGGLVQAGGSLRLSCAASGSTFGGNAMGWYRQAPGKEREFVAAISYSGGSTYYADSVKGRFTISRDNAKNTVYLQMNSLKPEDTAVYYCAATGEPPVFRNGYWGQGTQVTVSS”, the “polyreactivity (PSR sort gate)” value is recorded as “low polyreactivity”.

As to “QVQLVESGGGLVQAGGSLRLSCAASGSTFGGNAMGWYRQAPGKERELVAAISSTGGSTYYADSVKGRFTISRDNAKNTVYLQMNSLKPEDTAVYYCAALYHWTYDYWGQGTQVTVSS”, the “polyreactivity (PSR sort gate)” value is “low polyreactivity”.

As to “QVQLVESGGGLVQAGGSLRLSCAASGSTFGGNGMGWYRQAPGKEREFVATITWRSGSTYYADSVKGRFTISRDNAKNSVYLQMNSLKPEDSAVYYCAKYTSSRRNTWYYYWGQGTQVTVSS”, the “polyreactivity (PSR sort gate)” value is on record as “high polyreactivity”.

For “QVQLVESGGGLVQAGGSLRLSCAASGSTFGGYAMGWNRQAPGKEREWVAAISQSGTRTYYADSVKGRFTISRDNAKNTVYLQMNSLKPEDTAVYYCAAVKRFRKYDYWGQGTQVTVSS”, the “polyreactivity (PSR sort gate)” value is on record as “high polyreactivity”.

For “QVQLVESGGGLVQAGGSLRLSCAASGSTFGGYAMGWYRPAPGKERELVAAISGSGVRTYYADSVKGRFTISRDNAKNTVYLQMNSLKPEDTAVYYCAKRVRYPGDRYYYWGQGTQVTVSS”, the “polyreactivity (PSR sort gate)” value is on record as “high polyreactivity”.
